{"source": "the DeepSol protein solubility set"}
{"experiment": "soluble on expression in E. coli; label from the status in PepcDB or PDB records"}
{"sequence": "MGSDKIHHHHHHMGIRILNDLMLDKSALLFGVSKYLEKGIITGNILIHKSLLAELEKESNDGLVSAEIALDEVKKLKDITERILVNFEIVGENSKKGEANELSREYCLEKGCIMVTADETQKKICDVMGIQYSFLQPLEQSLSFESFFDDETMSLHIKEDTVPRAKKGKPGNWKFVNLSNKPMLSVDVKRIANEIINGVRFIKGSFIEIERKGSLIIQLGNYRVVITRPPLSDGWEITITRPVVRKRLEDYGLDERLIKRLEERAEGIIIAGAPGMGKTTFAQALSEYYMRLGKIVKTIESPRDMHLPPEITQYSKNYAEIGELHDILLLSRPDYTVYDEMRNDEDFKLYIDLRLAGIGMVGVVHATSPIDAIHRFVNRVDIGTIPNILDTIIFINSGNVSKVYTLEITVKVPAGLKEADLARPVVEIKDLVTGNTEYEIYVFGEQTMIVPVNRGITLNNMEFKISKIVNNIIPKATVKYEDGEYVIVIPKEEIGKYNRKLVQRLKRLEKKNNIKIKIKLSD", "soluble on expression in E. coli": "not soluble"}
{"sequence": "MGSDKIHHHHHHMKNHTYKEIKNIYGKISPFEFKDKLIDIAKYTAKENNRELLDAGRGNPNWTCSTAREAFFTFGHFAITETRSNWDLGHLAGMPQKKGIKERFFKFINENIDMPGAYLARDIINFGINELGFDGDEFVHELADGIIGDNYPLPDRMLPHMEKIVHDYLVQEMKYDISGKYGDVEIFAVEGATAAMCYIFDSLMANELLKKGDTIALMTPIFTPYLEIPNLPRYDFKVVNINANEVDEKGAHTWQYTKKELEKLRDKSIKALFVVNPNNPASIAMDETSCNNLIDVIENYNKDLMIISDDVYGTFVEDFSSLMSKLPYNTVGVYSYSKYFGVTGWRLGTFALHKKNVFDKKINDLTGELKKSVDKRYSDMSLNPSSLSFMERVVADSRLVALNHTAGLSTPQQVQMAFFSAFALIDKVDAYKKLNMSICHRRQKLLFEALELPINENKNNAAYYTQFDIEEWAKLNYGEDLFKFISKTASPVDVLYKLANDYSVVLLSGNGFYGPEWSIRISLANLYDEAYTKIGKAIREILNGYIVEWQKIKK", "soluble on expression in E. coli": "not soluble"}
{"sequence": "RLFGDNVVALAGDAGFRTYWLSNQARLGRYDTPVTAMANMAHFKTWADAPYDEALLPLLDAALAEPGRKVVFLHINGNHDNYCTRYPETATVYQGGAPYEDCYDNSIRYVDALLGAVMDRLGERRASLLFYPDHGLERHESVLGTFYHGGVRPSREAFDIPMFIWNSPAAPAPARREYDAPYSTEDNYGLILDWLG", "soluble on expression in E. coli": "not soluble"}
{"sequence": "SMPNHQKVVLVGDGAVGSSYAFAMAQQGIAEEFVIVDVVKDRTKGDALDLEDAQAFTAPKKIYSGEYSDCKDADLVVITAGAPQKPGESRLDLVNKNLNILSSIVKPVVDSGFDGIFLVAANPVDILTYATWKFSGFPKERVIGSGTSLDSSRLRVALGKQFNVDPRSVDAYIMGEHGDSEFAAYSTATIGTRPVRDVAKEQGVSDDDLAKLEDGVRNKAYDIINLKGATFYGIGTALMRISKAILRDENAVLPVGAYMDGQYGLNDIYIGTPAIIGGTGLKQIIESPLSADELKKMQDSAATLKKVLNDGLAELENK", "soluble on expression in E. coli": "soluble"}
{"sequence": "MRFGPVALSAAKGALLAHSRKAPGWTLAKGTRLGDEDLALLAGLGVAEVVVARLDPGDVHEDEAAARVAAVLLGPGLTLGDAFTGRANLFAGGDGLLRLDAARFDRLNALCEGLTVATLPPFAKVAPRQMVATVKIIPFALPETVIAQAEALLAGAPALEVALFRPMRLALIQTHLPETAGKMLDKTASVTAGRMAALGGGLTVDRRCPHDTRALAACLSAVSAEKDVDLIAVAGASAIVDRGDVIPAAITRAGGRVDHLGMPVDPGNLILLGELAGRVVLGLPGCARSPAINGFDWVLDRLCAGLAVGGADLMAMGVGGLLKDTTARTQPRMAAVTHPSPAAPPRLGALVLAAGLSRRMGGVNKLLLDWRGKPLVAHAVDTVLAAGPAAVAVVIGHQGKAVRAALEGRAIALVENPDPGRGLGSSLKRGLAALPADLDGVIVCLGDMPGLTPRLLSRLIAAFAPLEGRAICLPTFGGRRGNPVLFAARFLPEMMEITGDIGARPVIAAHPDQTCEVAMDALAEGASVLMDVDTPEAAKALLSAGGLEHHHHHH", "soluble on expression in E. coli": "not soluble"}
{"sequence": "MGSDKIHHHHHHMHYDHVLDKRMLRRSFEQAAAGYDQSAVLQREICDRMLSRLEYIKYVPARILDAGSGTGYGTRKLIERYPAAEIMPMDIALTMHRCARMAISEQIPGWQRWLPFRRHWPRDYICADIEQLPLGEASIGMIWSNLAIQWCNDLRQTFAEAYRVLENGGLLMFSTFGPDTLKELRQAFKSADSFSHVNRFTDMHDIGDMLVNCGFSLPVMDMEYITLTYEDVRGVMQDLKAIGARNVTQGRRRGLTGKAAWQQVIERYEALRQDGRLPATYEVVYGHAWKPESRQVQLKPETRRKLGLEP", "soluble on expression in E. coli": "not soluble"}
{"sequence": "MRVDLNSDLGESFGRYKLGLDEEVMKYITSANVACGWHAGDPLVMRKTVRLAKENDVQVGAHPGYPDLMGFGRRYMKLTPEEARNYILYQVGALYAFAKAEGLELQHVKPHGALYNAMVKEEDLARAVIEGILDFDKDLILVTLSNSRVADIAEEMGLKVAHEVFADRAYNPDGTLVPRGRPGAVIEDKEEIAERVISMVKDGGIRAINGEWVDLKVDTICVHGDNPKAVEITSYIRKVLEEEGVKIVPMKEFIR", "soluble on expression in E. coli": "soluble"}
{"sequence": "MSLENFRSNVRKPTMSLQIAVEKVRWLAAGLLELNGCDADIAQDVAEHMIEAERYGFASHGVTLLPKYLENIARGDVTANARPECLTSEGNLQRFHAHNGFGQHAGKVAVNAAIEQAKRRGFCLLTLCHAHHLGRMGHYGQMVADQGLAMLAMSNVTGRPALVAPWGGAEPRMTTNPFCFAWPFSDGRPPILVDFATSSMALNKARVMSSTGKQAAPGQLIDAQGNPSNDPGVLFSNPPGALLPFGEHKGFGLALMIEMMAGILSGGDTIAEDHQTDGSAHNHLFALIIDPDQFTDLAGEKGQFFADYLLATQPQPGGNPVIYPGMPEAANRERNAKMITIPVSFWSWVVEHYARKGIDLGLHPQESALAEGHHHHHH", "soluble on expression in E. coli": "soluble"}
{"sequence": "MSLYKGYLIDLDGTIYKGKDRIPAGETFVHELQKRDIPYLFVTNNTTRTPESVKEMLAQNFNIDTPLSTVYTATLATIDYMNDLGLEKTVYVVGEAGLKEAIKAAGYVEDKEKPAYVVVGLDWQVDYEKFATATLAIQKGAHFIGTNPDLNIPTERGLLPGAGSLITLLEVATRVKPVYIGKPNAIIMDKAVEHLGLEREELIMVGDNYLTDIRAGIDNGIPTLLVTTGFTKAEEVAGLPIAPTHVVSSLAEWDFDENEGHHHHHH", "soluble on expression in E. coli": "soluble"}
{"sequence": "MGSDKIHHHHHHMLQLNSPHVHNLFNTPFSAAIMDDVVIGLEVHVQLNRLRTKLFCSCPLNYHQSPPNTHVCPVCLGMPGAMPVINKEAVKAAVKVAMALNAEIQPFTVFDRKNYFYPDLPKGFQISQYDRPLALGGYVTIELDGQEKRIQLKRVHMEEDPGKLSYKGSITTAKYSLIDYNRSGAPLLEIVTEPVMNSPKEARLFLNKLRMILEYLEVFDGDLEGAMRVDANISIRGSGRVEIKNISSFKGVEKALSYEIMRQKNLLQRGRSVVRETRHFDEARNITVSLRSKEEEQDYRYFPEPDLVPVLTEEIVREVEGTLPEMPEEKRERLKRQYGIGDNFAKVLILDVKMADYFEEVAKLVDPKLAASWIVDVLRGELNYRDWSFAKCWEVFKPEEFAKLLKYFEEDRITEKGVVEVIRTKLDEGGEIDAIIQKKGLFAIPKEEIIKFCKEAIEENPKAVEDYLSGKRQALNFLVGQVMKKTRGRADPADTAKLIEEMLS", "soluble on expression in E. coli": "not soluble"}
{"sequence": "MKIRESTGKTSSLREVPGQEPRRVADSSGSSFKRHLKEFDHRNHEERIRALVSQIEEQGRKLSQKIDVAELKVYKRLISDFLDEVLHHSHIFSKDSHLDRRGRYKVYATVKKINEELDELTKEVLNAEKDNIRILQRIEDIRGLVLDLML", "soluble on expression in E. coli": "soluble"}
{"sequence": "MSYQIQYNDFPTFLRKHFPYKVQKISLNAGFTCPNRDGTKGWGGCTYCNNQTFNPDYCRTEKSIATQLEEGKCFFAHKYPEMKYLAYFQAYTNTYAELEGLKRKYEEALQVDGVVGLVIGTRPDCMPEELLQYLEELNRHTFLMVEYGIESASDETLRRINRGHTYADTVEAVQRTAACGILTGGHVILGLPGETHDTMVEQAGILSALPLSTLKIHQLQLIRGTRMAHEYEENPE", "soluble on expression in E. coli": "not soluble"}
{"sequence": "MNYQDVLDFWFAPDHTNFWFAKDSLFDDEIRTQFSTVHQQATQAELWSWRQTVEGRLAEIIVLDQFSRNLYRDQAQAFAQDSMALALAQEAITQQLDAQLSPEQRSFLYMPFMHSESKLIHEFALKLFQKLGNEINLSFEKKHKVIIDQFGRYPHRNAILGRQSTPEELEFLTQPNSHF", "soluble on expression in E. coli": "not soluble"}
{"sequence": "MSLKFFPTRTLLCLCIAAPCLPAIAQNDPIELPDIGTVAGSTLTIDQELIYGDAYMRMLRNNQPVINDPVLNEYIDNLGHRLVASANDVKTPFTFFMIRDRNINAFAFFGGYVALHSGLFLHAQSESELASVMAHEIAHVTQRHLARSMEEQARRSPATIAALAGSLLLAIAAPEAGIAAINATMAGSIQGQINYTRSNEKEADRFGIATLAKAGFDANAMPQFFTRLADEYRYASKPPPMLLTHPLPEDRITDSRERARQYPPLKLAPHLDYHLARARIIARYAGIDADAALDWFARSEKKIDATLQPSIQYGKALVYLDLKQFDKAEPLLTQLVKEQPDNHFYLDAISDLYIELKQADKAQSLLEKALKQTPNNSVLTINYANVLLKQDKFTDAIRILQRYTHDNPNDINGWQLLSEANSRLGNSAEDLAARGEIMALQANWNKAIQFYTQASQLVELGSLAQARYDARIDQLMVQRERFLSLQEGGSHHHHHH", "soluble on expression in E. coli": "soluble"}
{"sequence": "MDQAELSIEQVLKRDIPWETYMNTKLVSAKGLQLLRRYDKKPESARAQLLDEDGPAYVHLFVSILRDIFKEETVEYVLALIYEMLSANPTRARLFHDESLANEDTYEPFLRLLWKGNWFIQEKSCKILAWIISARPKAGNAVIGNGIDDVLKGLVEWLCAQLKQPSHPTRGVPIAISCLSSLLKEPVVRSSFVQADGVKLLVPLISPASTQQSIQLLYETCLCIWLLSYYEPAIEYLATSRTMQRLTEVVKHSTKEKVVRVVILTFRNLLPKGTFGAQMVDLGLPHIIHSLKTQAWSDEDLLDALNQLEEGLKDKIKKLSSFDKYKQEVLLGHLDWNPMHKETNFWRENVTCFEENDFQILRVLLTILDTSSDPRSLAVACFDISQFIQYHAAGRVIVADLKAKERVMKLINHENAEVTKNAILCIQRLLLGAKYASFLQA", "soluble on expression in E. coli": "soluble"}
{"sequence": "MNATINDDDIDDVKKALDHATQAAHKAAAELTAKLRSDFVEYGNGGTAGQVLIHIYGPGLIYGFSAFPVQIRLEIPNQPVPFNKVHITEVTAYVIDENNRTYWTRVWNSSTFRQGGYIADTLDLVTVMKAPDPLVYQIRDAIVTGQISRELYDKIWNTSTTHFEIRVIVKGYQEAWKTDSSVSNQSSCPSDGHWYEDACWVHDKDIDFTLKAETTTAWGHVTGTNDVATIDGGMLGSLPIKFLQSLDLSGKWVLYQNKYAGALSDFIIITAASPVHVLNSTAMYKFLITPNPGYFQPANPKISDEYRFVTLRVIEGGRMELADTTTGHIGDLTEPTFFGLTAHYTDAPGTLDYHALGLVYAYVERDDGVKIPIWLAAEPMISVLSNTYTVMKDQDVKNLIDLYKKKDREKINATTKAMINSLQEKIDEAEQLLAKAKGMNNENAIEYAQGAIDEYKAAINDLQKAAQQDDYQMFLNYLNAAKKHEMAGDYYVNAARKALNGDLEQAKIDAEKAKEYSNLAKEYEPG", "soluble on expression in E. coli": "soluble"}
{"sequence": "MEVYIPSFRHEDSDLERGYTVFKIEVLMNGRKHFVEKRYSEFHALHKKLKKCIKTPEIPSKHVRNWVPKVLEQRRQGLETYLQAVILENEELPKLFLDFLNVRHLPSLPKAESCGSFDETESEESSKLSHQPVLLFLGDPYVLPAASDFPNVVIEGVLHGIFFSHLQPR", "soluble on expression in E. coli": "not soluble"}
{"sequence": "MAVAFYIPDQATLLREAEQKEQQILRLRESQWRFLATVVLETLRQYTSCHPKTGRKSGKYRKPSQ", "soluble on expression in E. coli": "not soluble"}
